# Patent US20230227568A1 (Pieris, published 2023)
# B1: multimeric protein SEQ ID NO: 38 (designed binder)
# chain: QDSTSDLIPAPPLSKVPLQQNFQDNQFHGKWYVVGQAGNIRLREDKDPIKMMATIYELKEDKSYDVTMVKFDDKKCMYDIWTFVPGSQPGEFTLGKIKSFPGHTSSLVRVVSTNYNQHAMVFFKFVFQNREEFYITLYGRTKELTSELKENFIRFSKSLGLPENHIVFPVPIDQCIDGGGGGSGGGGSGGGGSGVRLWATRQAMLGQVHEVPEGWLIFVAEQEELYVRVQNGFRKVQLEARTPLGGSGGAPEQKLISEEDLGSHHHHHHHHHH
# notes: Trivalent; Self-assembled from its monomer polypeptides
# B2: multimeric protein SEQ ID NO: 39 (designed binder)
# chain: QDSTSDLIPAPPLSKVPLQQNFQDNQFHGKWYVVGQAGNIRLREDKDPIKMMATIYELKEDKSYDVTMVKFDDKKCMYDIWTFVPGSQPGEFTLGKIKSFPGHTSSLVRVVSTNYNQHAMVFFKFVFQNREEFYITLYGRTKELTSELKENFIRFSKSLGLPENHIVFPVPIDQCIDGGGGGSGVRLWATRQAMLGQVHEVPEGWLIFVAEQEELYVRVQNGFRKVQLEARTPLGGSGGAPEQKLISEEDLGSHHHHHHHHHH
# B3: multimeric protein SEQ ID NO: 42 (designed binder)
# chain: QDSTSDLIPAPPLSKVPLQQNFQDNQFHGKWYVVGQAGNIRLREDKDPIKMMATIYELKEDKSYDVTMVKFDDKKCMYDIWTFVPGSQPGEFTLGKIKSFPGHTSSLVRVVSTNYNQHAMVFFKFVFQNREEFYITLYGRTKELTSELKENFIRFSKSLGLPENHIVFPVPIDQCIDGAEAAAKEAAAKEAAAKAGVRLWATRQAMLGQVHEVPEGWLIFVAEQEELYVRVQNGFRKVQLEARTPLGGSGGAPEQKLISEEDLGSHHHHHHHHHH
# B4: multimeric protein SEQ ID NO: 43 (designed binder)
# chain: GVRLWATRQAMLGQVHEVPEGWLIFVAEQEELYVRVQNGFRKVQLEARTPLGGGGSGGGGSGGGGSQDSTSDLIPAPPLSKVPLQQNFQDNQFHGKWYVVGQAGNIRLREDKDPIKMMATIYELKEDKSYDVTMVKFDDKKCMYDIWTFVPGSQPGEFTLGKIKSFPGHTSSLVRVVSTNYNQHAMVFFKFVFQNREEFYITLYGRTKELTSELKENFIRFSKSLGLPENHIVFPVPIDQCIDGGGSGGAPEQKLISEEDLGSHHHHHHHHHH
# B5: multimeric protein SEQ ID NO: 49 (designed binder)
# chain: QDSTSDLIPAPPLSKVPLQQNFQDNQFHGKWYVVGQAGNIRLREDKDPIKMMATIYELKEDKSYDVTMVKFDDKKCMYDIWTFVPGSQPGEFTLGKIKSFPGHTSSLVRVVSTNYNQHAMVFFKFVFQNREEFYITLYGRTKELTSELKENFIRFSKSLGLPENHIVFPVPIDQCIDGGGGGSGVRLWATRQAMLGQVHEVPEGWLIFVAEQEELYVRVQNGFRKVQLEARTPLGGGGSGGGGSGGGGSQDSTSDLIPAPPLSKVPLQQNFQDNQFHGKWYVVGQAGNIRLREDKDPIKMMATIYELKEDKSYDVTMVKFDDKKCMYDIWTFVPGSQPGEFTLGKIKSFPGHTSSLVRVVSTNYNQHAMVFFKFVFQNREEFYITLYGRTKELTSELKENFIRFSKSLGLPENHIVFPVPIDQCIDGGGSGGAPEQKLISEEDLGSHHHHHHHHHH
# B6: multimeric protein SEQ ID NO: 41 (designed binder)
# chain: QDSTSDLIPAPPLSKVPLQQNFQDNQFHGKWYVVGQAGNIRLREDKDPIKMMATIYELKEDKSYDVTMVKFDDKKCMYDIWTFVPGSQPGEFTLGKIKSFPGHTSSLVRVVSTNYNQHAMVFFKFVFQNREEFYITLYGRTKELTSELKENFIRFSKSLGLPENHIVFPVPIDQCIDGGSPTPTPTTPTPTPTGVRLWATRQAMLGQVHEVPEGWLIFVAEQEELYVRVQNGFRKVQLEARTPLGGSGGAPEQKLISEEDLGSHHHHHHHHHH
# B7: multimeric protein SEQ ID NO: 47 (designed binder)
# chain: QDSTSDLIPAPPLSKVPLQQNFQDNQFHGKWYVVGQAGNIRLREDKDPIKMMATIYELKEDKSYDVTMVKFDDKKCMYDIWTFVPGSQPGEFTLGKIKSFPGHTSSLVRVVSTNYNQHAMVFFKFVFQNREEFYITLYGRTKELTSELKENFIRFSKSLGLPENHIVFPVPIDQCIDGGGGGSGGGGSGGGGSKPLDGEYFTLQIRGRERFEMFRELNEALELKDAQAGKEPGGSGGAPEQKLISEEDLGSHHHHHHHHHH
# B8: multimeric protein SEQ ID NO: 48 (designed binder)
# chain: QDSTSDLIPAPPLSKVPLQQNFQDNQFHGKWYVVGQAGNIRLREDKDPIKMMATIYELKEDKSYDVTMVKFDDKKCMYDIWTFVPGSQPGEFTLGKIKSFPGHTSSLVRVVSTNYNQHAMVFFKFVFQNREEFYITLYGRTKELTSELKENFIRFSKSLGLPENHIVFPVPIDQCIDGGGGGSGGGGSGGGGSGVRLWATRQAMLGQVHEVPEGWLIFVAEQEELYVRVQNGFRKVQLEARTPLGGGGSGGGGSGGGGSQDSTSDLIPAPPLSKVPLQQNFQDNQFHGKWYVVGQAGNIRLREDKDPIKMMATIYELKEDKSYDVTMVKFDDKKCMYDIWTFVPGSQPGEFTLGKIKSFPGHTSSLVRVVSTNYNQHAMVFFKFVFQNREEFYITLYGRTKELTSELKENFIRFSKSLGLPENHIVFPVPIDQCIDGGGSGGAPEQKLISEEDLGSHHHHHHHHHH
# B9: multimeric protein SEQ ID NO: 44 (designed binder)
# chain: GVRLWATRQAMLGQVHEVPEGWLIFVAEQEELYVRVQNGFRKVQLEARTPLGGGGSQDSTSDLIPAPPLSKVPLQQNFQDNQFHGKWYVVGQAGNIRLREDKDPIKMMATIYELKEDKSYDVTMVKFDDKKCMYDIWTFVPGSQPGEFTLGKIKSFPGHTSSLVRVVSTNYNQHAMVFFKFVFQNREEFYITLYGRTKELTSELKENFIRFSKSLGLPENHIVFPVPIDQCIDGGGSGGAPEQKLISEEDLGSHHHHHHHHHH
# Target: T1, hu4-1BB-Fc (R&D Systems) (human, UniProt Q07011 24-186)
# T1 construct: Bought; also called human 4-1BB; not shown: human IgG Fc of the bought fusion
# Assay: SPR (Biacore 8K), hu4-1BB-Fc captured by anti-human IgG Fc; apparent value, 1:1 fit
# Description: The anti-human IgG Fc antibody (GE Healthcare) was immobilized on a CM5 sensor chip using standard amine chemistry: the carboxyl groups on the chip were activated using 1-ethyl-3-(3-dimethylaminopropyl)-carbodiimide (EDC) and N-hydroxysuccinimide (NHS). Subsequently, anti-human IgG Fc antibody solution (GE Healthcare) at a concentration of 25 μg/mL in 10 mM sodium acetate (pH 5.0) was applied at a flow rate of 5 μL/min until an immobilization level of 4000-10000 resonance units (RU) was achieved. Residual non-reacted NHS-esters were blocked by passing a solution of 1 M ethanolamine across the surface. The reference channel was treated in an analogous manner. Subsequently, hu4-1BB-Fc (R&D Systems) at 0.3 μg/mL was captured by the anti-human IgG-Fc antibody at the chip surface for 180 s at a flow rate of 10 μL/min.
# The binding assay was carried out with a contact time of 180 s, a dissociation time of 1200 s or 3000 s and a flow rate of 30 μL/min. All measurements were performed at 25° C. Lipocalin mutein SEQ ID NO: 64 as included in the multimeric proteins was also tested as […]. […] Prior to the protein measurements, three startup cycles were performed for conditioning purposes. Data were evaluated with Biacore Evaluation software. Double referencing was used and the 1:1 binding model was used to fit the raw data.
Binder,Kd,koff,kon
B1,0.25 nM,2.22e-05 s⁻¹,89200 M⁻¹ s⁻¹
B2,0.38 nM,2.63e-05 s⁻¹,68800 M⁻¹ s⁻¹
B3,0.28 nM,1.74e-05 s⁻¹,61300 M⁻¹ s⁻¹
B4,0.39 nM,4.42e-05 s⁻¹,114000 M⁻¹ s⁻¹
B5,0.21 nM,1.91e-05 s⁻¹,90200 M⁻¹ s⁻¹
B6,0.31 nM,2.07e-05 s⁻¹,66200 M⁻¹ s⁻¹
B7,0.66 nM,6.52e-05 s⁻¹,98700 M⁻¹ s⁻¹
B8,0.34 nM,2.76e-05 s⁻¹,81600 M⁻¹ s⁻¹
B9,0.24 nM,2.07e-05 s⁻¹,87500 M⁻¹ s⁻¹

# Target: T2, human 4-1BB on cells (human, UniProt Q07011 24-255)
# T2 construct: whole, on cells; Stably transfected CHO cells (flow cytometry) and bought Jurkat reporter cells (bioassay); also called Flp-In-CHO::hu4-1BB; human 4-1BB-expressing CHO cells
# Assay: flow cytometry, Flp-In-CHO::hu4-1BB cells
# Description: (§1) CHO cells were stably transfected with human 4-1BB, cynomolgus 4-1BB, or a mock control using the Flp-In system (Life Technologies) according to the manufacturer's instructions. Transfected CHO cells were maintained in Ham's F12 medium (Life Technologies) supplemented with 10% Fetal Calf Serum (Biochrom) and 500 μg/ml Hygromycin B (Roth). Cells were cultured in cell culture flasks according to manufacturer's instruction (37° C., 5% CO₂ atmosphere).
# (§2) 5×10⁴ cells per well were incubated for 1 h in ice-cold PBS containing 5% fetal calf serum (PBS-FCS). A dilution series of the tested multimeric proteins (SEQ ID NOs: 38-44 and 46-55), the 4-1BB-targeting lipocalin mutein as included in the multimeric proteins (SEQ ID NO: 64) or the GPC3-targeting lipocalin SEQ ID NO: 90 were added to the cells and incubated for 1 h on ice. Cells were washed twice with PBS and then incubated with a rabbit anti-NGAL or a goat anti-human IgG labeled with fluorescent dye Alexa 488 for 30 min on ice. Human IgG4 isotype (SEQ ID NOs: 29 and 30) and lipocalin mutein SEQ ID NO: 8 were tested as a negative control. Cells were subsequently washed and analyzed using iQue Flow cytometer (Intellicyte Screener). Mean geometric fluorescent signals were plotted and fitted with Graphpad software using nonlinear regression (shared bottom, four parameters, variable slope).
# T2 sequence (Q07011 24-255): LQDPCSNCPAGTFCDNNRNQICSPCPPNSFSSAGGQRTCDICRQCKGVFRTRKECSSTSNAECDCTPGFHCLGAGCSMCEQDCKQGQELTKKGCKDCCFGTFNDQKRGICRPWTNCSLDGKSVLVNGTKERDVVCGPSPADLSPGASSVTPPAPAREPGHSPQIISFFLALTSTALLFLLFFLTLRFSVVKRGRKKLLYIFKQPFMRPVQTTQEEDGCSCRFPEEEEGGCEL
row,Binder,EC50
1,B1,4.89 nM
2,B2,5.87 nM
3,B3,8.5 nM
4,B5,4.99 nM
5,B6,7.37 nM
6,B7,3.81 nM
7,B8,2.98 nM
8,B9,6.64 nM

# Target: T3, recombinant hu4-1BB-His (human 4-1BB with a C-terminal polyhistidine tag, R&D Systems) (human, UniProt Q07011 24-186)
# T3 construct: Bought; not shown: C-terminal polyhistidine tag
# Assay: ELISA, hu4-1BB-His coated, detection anti-NGAL-HRP
# Description: Recombinant hu4-1BB-His (human 4-1BB with a C-terminal polyhistidine tag, R&D Systems) at the concentration of 1 μg/mL in PBS was coated overnight on microtiter plates at 4° C. After washing with PBS-0.05% T (PBS supplemented with 0.05% (v/v) Tween 20), the plates were blocked with 2% BSA (w/v) in PBS-0.1% T (PBS supplemented with 0.1% (v/v) Tween 20) for 1 h at room temperature. After washing with 100 μL PBS-0.05% T five times, exemplary multimeric proteins (SEQ ID NOs: 38-44 and 46-53) or 4-1BB-specific lipocalin mutein as included in the multimeric protein (SEQ ID NO: 64) at different concentrations, ranging from 100 to 0.002 nM, were added to the wells and incubated for 1 h at room temperature, followed by another wash step. Bound molecules under study were detected by incubation with 1:1000 diluted anti-NGAL-HRP in PBS-0.1% T-2% BSA. After an additional wash step, fluorogenic HRP substrate (QuantaBlu, Thermo) was added to each well and the fluorescence intensity was detected using a fluorescence microplate reader.
# The results of exemplary experiments are depicted in FIG. 2, together with the fit curves resulting from a 1:1 binding sigmoidal fit, where the EC₅₀ value and the maximum signal were free parameters, and the slope was fixed to one. The observed EC₅₀ values toward the hu4-1BB of all tested multimeric proteins were in the sub nanomolar range.
row,Binder,EC50
1,B1,0.16 nM
2,B2,0.24 nM
3,B3,0.26 nM
4,B4,0.16 nM
5,B5,0.13 nM
6,B6,0.19 nM
7,B7,0.1 nM
8,B8,0.1 nM
9,B9,0.22 nM

# Target: T4, cynomolgus 4-1BB on CHO cells (cynomolgus, UniProt A9YYE7 24-254)
# T4 construct: also called Flp-In-CHO::cyno4-1BB; cynomolgus 4-1BB-expressing CHO cells
# Assay: flow cytometry, Flp-In-CHO::cyno4-1BB cells
# Description: as §1, §2
# T4 sequence (A9YYE7 entry or part of it limits assumed): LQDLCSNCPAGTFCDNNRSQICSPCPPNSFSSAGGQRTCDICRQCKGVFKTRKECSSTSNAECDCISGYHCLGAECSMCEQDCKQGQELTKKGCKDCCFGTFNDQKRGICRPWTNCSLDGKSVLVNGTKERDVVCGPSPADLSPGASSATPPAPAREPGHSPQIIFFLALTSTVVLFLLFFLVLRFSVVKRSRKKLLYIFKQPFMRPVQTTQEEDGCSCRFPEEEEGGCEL
row,Binder,EC50
1,B1,5.92 nM
2,B2,3.68 nM
3,B3,6.59 nM
4,B5,2.75 nM
5,B6,5.63 nM
6,B7,3.81 nM
7,B8,2.83 nM
8,B9,5.03 nM

# Target: T2, human 4-1BB on cells
# Assay: cell-based or functional assay
row,Binder,"EC50 [nM], 4-1BB bioassay (NFκB-luc2/4-1BB Jurkat luminescence), with HepG2 cells"
1,B5,0.9 nM
2,B8,0.82 nM
